Source: publication PMC5378873 (Oncogene, 2016)

Target: FKBP12 (protein used for ITC) (human, UniProt P62942 1-108)
Assay: ITC

Chain of FKBP12 (protein used for ITC) (P62942 whole entry): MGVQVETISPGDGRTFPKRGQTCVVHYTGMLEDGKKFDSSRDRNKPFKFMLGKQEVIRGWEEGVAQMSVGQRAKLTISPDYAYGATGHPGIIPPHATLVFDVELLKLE

B1: MDM2 (425-491) RING domain (protein used for ITC) (domain or fragment, human, UniProt Q00987 425-491, looked up)
chain: SVESSLPLNAIEPCVICQGRPKNGCIVHGKTGHLMACFTCAKKLKKRNKPCPVCRQPIQMIVLTYFP
B1 gave a Kd of 1940 nM.
